Measured values from patent US20060121553A1, “Fluorogenic enzyme assay methods, kits and compositions using charge-balancers” (Applera Corporation, priority 2004, published 2006).
*: point of attachment. Palmitoyl = CCCCCCCCCCCCCCCC(=O)*; K(Dye 2) = not defined here; code O = not defined here

Assays:
[1] = tested on: T1, substrate molecule C16Lys(Dye 2)OOOGluGluIleTyrGlyGluPheNH2
T1 sequence: KEEIYGEF

tyrosine kinase Lyn = tyrosine kinase Lyn (Homo sapiens, UniProt P07948); test: Detection of protein kinase activity (fluorogenic micelle assay); assay type: biochemical; conditions: 2 μM substrate molecule, 2 μM charge-balance molecule, 0 or 100 μM ATP, 5 nM Lyn; FIG. 8
tyrosine kinase Lyn, sequence (P07948 whole entry): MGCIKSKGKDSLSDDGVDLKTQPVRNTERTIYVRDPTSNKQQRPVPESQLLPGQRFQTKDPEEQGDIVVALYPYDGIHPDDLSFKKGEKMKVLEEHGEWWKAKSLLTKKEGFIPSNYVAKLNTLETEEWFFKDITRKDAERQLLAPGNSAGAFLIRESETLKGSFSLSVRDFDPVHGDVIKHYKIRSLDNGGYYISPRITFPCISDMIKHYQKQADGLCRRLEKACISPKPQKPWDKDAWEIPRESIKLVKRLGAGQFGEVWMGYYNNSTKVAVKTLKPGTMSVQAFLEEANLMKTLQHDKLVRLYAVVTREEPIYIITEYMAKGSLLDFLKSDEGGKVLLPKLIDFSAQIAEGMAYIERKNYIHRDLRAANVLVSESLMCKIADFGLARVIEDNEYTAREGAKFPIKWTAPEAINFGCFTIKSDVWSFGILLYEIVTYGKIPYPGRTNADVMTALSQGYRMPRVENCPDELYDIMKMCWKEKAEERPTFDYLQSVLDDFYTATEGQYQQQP
Procedure: Kinase assays were performed using Corning 384-well, black, non-binding surface (NBS), microwell plates. Fluorescence was read in real time using a Molecular Dynamics Gemini XS plate reader, with excitation and emission set at 500 and 550 respectively. The plate was read every minute for one hour at ambient temperature.
Concentrations of the substrate molecule C16Lys(Dye 2)OOOGluGluIleTyrGlyGluPheNH2 and charge-balance molecule C16ArgArgOOOArgArgIleTyrGlyArg PheNH2 were determined by dilution of the purified peptides into dimethylformamide (200 µL) with 1 M NaOH (5 µL) and measuring the absorbance of 5-carboxy-2′,7′-dipyridyl-sulfonefluorescein (Dye2) at its absorbance maximum (548 nm). The extinction coefficient of Dye2 was assumed to be 80,000 cm1M-1.
A reaction solution was prepared containing the substrate molecule C16Lys(Dye 2)OOOGluGluIleTyrGlyGluPheNH2 (2 μM), and charge-balance molecule C16ArgArgOOOArgArgIleTyrGlyArg PheNH2 (2 μM), 20 mM Tris buffer, pH 7.6, MgCl2 (5 mM), DTT (5 mM) and Lyn (5 nM). The solution was pipetted into wells of a 384-well plate ([…] per well). ATP (0 or 100 μM) was added to initiate the kinase reaction. The plate was read at 500 nm excitation, 550 nm emission, each minute for 1 hour.

[2] = Total charge of substrate molecule and charge-balance molecule; assay type: physicochemical
Excerpt: FIG. 6B illustrates an exemplary charge-balance molecule (i.e. C16ArgArgOOOArgArgIleTyrGlyArgPheNH2, wherein OOO represents the optional O-spacers) that can be used balance the charge of the substrate molecule illustrated in FIG. 6A. The substrate molecule illustrated in FIG. 6A comprises a fluorescent moiety containing a sulfonate anion with a charge of ^−2. The substrate molecule illustrated in FIG. 6A further comprises a substrate moiety comprising three glutamate residues, each with a −1 charge. Thus, the total negative charge of the substrate molecule illustrated in FIG. 6A is ^−5 at physiological pH. […] The total positive charge of the charge-balance molecule illustrated in FIG. 6B is ^+5 at pH 7.6. Thus, the net charge of the compound comprising the substrate molecule illustrated in FIG. 6A and the charge-balance molecule illustrated in FIG. 6B is approximately zero at pH 7.6.

tyrosine kinase Lyn
fluorescence over time (rate of the kinase reaction, 0 or 100 µM ATP) [1]: The addition of tyrosine kinase Lyn to the micelle comprising the substrate molecule and charge-balance molecule cause an increase in fluorescence over time.

C16Lys(Dye 2)OOOGluGluIleTyrGlyGluPheNH2 ({Palmitoyl-K(Dye 2)-code O-code O-code O}-EEIYGEF-NH2; reading uncertain; also: printed as C16Lys(Dye 2)OOOGluGluIleTyrGlyGluPheNH2) [substrate molecule for tyrosine kinase Lyn; OOO = O-spacers, Dye2 = 5-carboxy-2′,7′-dipyridyl-sulfonefluorescein]
fluorescence change on addition of tyrosine kinase Lyn (tyrosine kinase Lyn): increase in fluorescence over time | total negative charge ([2]; physiological pH): −5

C16ArgArgOOOArgArgIleTyrGlyArgPheNH2 ({Palmitoyl-Arg-Arg-code O-code O-code O}-RRIYGRF-NH2; reading uncertain; also: printed as C16ArgArgOOOArgArgIleTyrGlyArgPheNH2) [charge-balance molecule balancing the charge of the substrate molecule; OOO = O-spacers]
total positive charge ([2]; pH 7.6): +5
